In PMC9681212:

Molecular target: Halo-HIF-1β (endogenously HaloTag-tagged HIF-1β, knock-in clone A21) (human (endogenous in 786-O)) (UniProt P27540)
Sequence (P27540 whole entry): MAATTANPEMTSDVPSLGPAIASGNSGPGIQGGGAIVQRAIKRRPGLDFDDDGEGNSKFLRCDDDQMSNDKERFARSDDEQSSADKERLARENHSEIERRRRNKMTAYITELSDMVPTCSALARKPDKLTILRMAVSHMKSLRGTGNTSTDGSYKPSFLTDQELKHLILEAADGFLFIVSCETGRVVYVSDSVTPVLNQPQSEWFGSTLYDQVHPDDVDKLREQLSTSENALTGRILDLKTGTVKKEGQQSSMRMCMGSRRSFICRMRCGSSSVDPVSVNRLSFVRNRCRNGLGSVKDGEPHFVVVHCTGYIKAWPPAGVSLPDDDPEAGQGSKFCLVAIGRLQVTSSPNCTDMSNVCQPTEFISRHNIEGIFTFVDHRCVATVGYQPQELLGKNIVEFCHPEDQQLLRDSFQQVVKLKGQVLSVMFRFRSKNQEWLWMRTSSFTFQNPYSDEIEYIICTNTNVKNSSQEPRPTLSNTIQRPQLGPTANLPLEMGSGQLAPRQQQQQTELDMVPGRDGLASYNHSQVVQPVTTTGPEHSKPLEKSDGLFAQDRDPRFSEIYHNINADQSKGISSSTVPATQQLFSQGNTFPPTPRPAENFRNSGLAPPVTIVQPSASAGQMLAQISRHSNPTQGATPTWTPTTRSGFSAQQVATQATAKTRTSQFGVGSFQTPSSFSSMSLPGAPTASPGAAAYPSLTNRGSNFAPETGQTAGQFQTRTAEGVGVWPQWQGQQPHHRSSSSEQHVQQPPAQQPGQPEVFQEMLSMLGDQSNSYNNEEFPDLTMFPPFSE

Sequence of HIF-2α N-terminally fused with 3xFLAG tag through a short peptide linker sequence (GDGAGLIN) (Q99814 whole entry, the tested form may be a part): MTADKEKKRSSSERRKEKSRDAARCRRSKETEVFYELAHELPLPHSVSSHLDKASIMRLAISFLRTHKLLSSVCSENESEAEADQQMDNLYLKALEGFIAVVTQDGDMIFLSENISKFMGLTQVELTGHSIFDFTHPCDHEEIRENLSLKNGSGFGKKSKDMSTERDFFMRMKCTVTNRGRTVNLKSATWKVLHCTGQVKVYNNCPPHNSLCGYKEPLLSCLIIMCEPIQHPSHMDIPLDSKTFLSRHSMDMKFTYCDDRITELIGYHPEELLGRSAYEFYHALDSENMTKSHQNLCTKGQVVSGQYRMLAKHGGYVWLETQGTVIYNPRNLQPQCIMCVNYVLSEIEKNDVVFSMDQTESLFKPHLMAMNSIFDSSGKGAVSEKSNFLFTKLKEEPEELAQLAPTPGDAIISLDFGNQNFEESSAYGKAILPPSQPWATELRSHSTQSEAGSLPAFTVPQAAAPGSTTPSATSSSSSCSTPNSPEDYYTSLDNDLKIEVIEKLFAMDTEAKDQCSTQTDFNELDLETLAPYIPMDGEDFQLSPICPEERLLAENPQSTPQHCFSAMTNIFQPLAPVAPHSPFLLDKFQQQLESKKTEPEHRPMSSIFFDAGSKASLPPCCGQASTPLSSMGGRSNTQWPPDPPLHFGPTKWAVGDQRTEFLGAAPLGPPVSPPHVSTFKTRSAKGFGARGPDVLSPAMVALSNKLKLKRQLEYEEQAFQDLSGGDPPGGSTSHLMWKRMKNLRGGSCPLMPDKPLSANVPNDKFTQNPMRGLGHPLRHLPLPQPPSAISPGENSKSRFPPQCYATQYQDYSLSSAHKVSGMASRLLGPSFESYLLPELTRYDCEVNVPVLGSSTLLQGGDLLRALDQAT

Work on “HIF-2α N-terminally fused with 3xFLAG tag through a short peptide linker sequence (GDGAGLIN) (from UniProt Q99814 1-870) (natural protein)” yielded a fSPT of endogenous Halo-HIF-1β in live 786-O KIN cells stably overexpressing HIF-2α: bound fraction of Halo-HIF-1β (diffusion coefficient <0.1 μm^2/s, presumably chromatin-bound) of less than 50%.
